# Data published in the nanobody polyreactivity screen of Harvey et al. (2022).
# Test: yeast display, Sf9 membrane polyspecificity reagent, FACS + sequencing; frameworks hold sequencing errors
# How it was run: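 A synthetic nanobody library was expressed on Saccharomyces cerevisiae BJ5465 by galactose induction for 36–48 hours. The library was stained for 1 hour at 4 °C with 10% biotinylated, detergent-solubilized Sf9 membrane reagent and enriched with streptavidin microbeads before FACS. Low and high (top ~1%) gates were set on anti-HA fluorescence for expression and streptavidin fluorescence for reagent binding, and each polyreactivity label reflects the gate of origin.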
row,Sequence,polyreactivity (PSR sort gate)
1,QVQLQESGGGLVQAGGSLRLSCAASGSISHYIFMGWYRQAPGKEREFVAGIGYGGTTNYADSVKGRFTISRDNAINTVYLQMNSLKPEDTAMYYCAAREATEFYLYYWGQGTQVTVSS,low polyreactivity
2,QVQLVESGGGLVQAGGSLRLSCAASGRTLSLYAMGWYRQAPGKEMELVANISNSGGSTDYADSVKGRFTISRDNAKNTVYLQMNSLKPEDTAVYYCAADANSWFTSYQVYGSEFDYWGQGTQVTVSS,low polyreactivity
3,QVQLVESGGGLVQAGGSLRLSCAPSGFTFGLYAMGWYRQAPGKERELVAAISWSGGRTYYADSVKGRFTISRDNAKNTVYLQMNSLKPEDTAVYYCAAVNKARSEDYGYWGQGTQVTVSS,high polyreactivity
4,QVHLVESGGGLVQAGGSLRLSCAASGSIFQPYAMGWYRQAPGTERELVAAISSSGGSTTYADSVKGRFTISRDKAKNTVYLQMNSLKPEDTAVYYCAAESADDMGYWGQGTQVTVSS,low polyreactivity
5,QVQLVESGGGLVQAGGSLRLSCAASGSIFAYYAMGWYRQAPGKERELVAAISRSGVSTYYADSVKGRFTISRDNAKNTVYLQMNSLKPEDTAVYYCAARWRSGFTSGDYWGQGTQVTVSS,low polyreactivity
6,QVQLVESGGGLVQAGGSLRLSCAASGLTFIYYAMGWYRQAPGKERELVAAISVSGGSTYYADSVKGRFTISRDNAKNTVYLQMNSLKQEDTAVYYCAADWFVHKPRYQYSFDYWGQGTQVTVSS,low polyreactivity
7,QVQLVESGGGLVQAGGSLRLSCAASGRIFYGYAMGWYRQAPGNERELVAAISSSGGSTYYADSVKGRFTISRDNAKYTVYLQMNSLKPDDTAVYYCNAQLYRPGYWYDYWGQGTQVTVSS,high polyreactivity
8,QVQLVESGGGLVQAGGRLRLSCGASGIIFVYYTMGWDRQAPGKERELVAAITSGGSTYYADSVKGRFTISRDNAKNTVFLQINSLKPEDTAVYYCAAVGRPPYAGDRGFRGQGTQVTVSS,high polyreactivity
9,QVQLVESGGGLVQAGGSLRLSCAASGYAMGWYRQAPGKERELVAAISWSGDITYADSVKGRFTISRDNAKNTVYLQMNRLKPEDTAVYYCNADRYTGRDGEQSLDYWGQGTQVTVSS,low polyreactivity
10,QVQLVESGGGLVQAGGSLRLSCADSGSILVAKGMGWYRQAPGKESELVAGITTRGGNTYYADSVKGRFTISRDNAKNTVYLQMNSLKPEDTAVYYCAADHLSYRRRYEYWGQGTQVTVSS,low polyreactivity
11,HVQLVESGGGLVQAGGSLRLSCAASGRIFVVYTMGWYRQAPGKERELVASIRGSGDSTNYADSVKGRFTLSRDNAKNTVYLQMNRLKPEDTAVYYCAADLPWSRRYSYRYGYWGQGTQVTVSS,low polyreactivity
12,QVQLVESGGGLVQAGGSLRLSCAASGIIFDFYAMGWYRQAPGKERELVAAINSGSGSTYYADSVKGRFTISRDNAKNTVYLQMNSLKPEDTAVYYCAADGLSATLTWYSYDYWGQGTQVTVSS,low polyreactivity
13,QVQLVESGGGLVQAGGSLRLSCAASGRIFGRYAMGGSRQAPGKERELVAAITSSGGNTYYADSVKGRFTISRDNAKNTVYLQMNSLKPEDTAVYYCNALSARSRLQSDYWGQGTQVTVSS,high polyreactivity
14,QVQLEESGGGLVQAGGSLRLSCAASGITFLRNAMGWYSQAPGKERELVAAISRSGGRTYYADSVKGRFTISRDNAQNTVYLQMNSLKPEDTAVYYCAVVTQFGDGYYWGQGTQVTVSS,high polyreactivity
15,QVQLVESGAGLVQAGGSLRLSCAASGRTFKTYAMAWYRQAPGKERELVAAISRDGRTYYADSVKGRFTISRDNAKNTVYLQMNSLKPEDTAVYYCAKDASVWPWWGYRGDYWGQGTQVTVSS,low polyreactivity
16,QVQLVESGGGLVQAGGSLRLSCAASGRIFRYYAMGWYRQAPGKERELVATIDWSVGSTYYADSVKGRFTISRDNAKNTVYLQMNSLKPEDTAVYYCAKRGPQVWTFDYDSSGQGTQVTVSS,low polyreactivity
17,QVQLVESGGGLVQAGGSLRLSCAASGIIFVRYAMGWYIQAPGKERELVAAINSRGNTYYADSVKGRFTISRDNAKNSVYLQMNSLKPEDTAVYYCAKYNSWGQGTQVTVSS,high polyreactivity
18,QVQLVESGGGLVQAGGSLRLSCAASGSNFNPYDLGWYRQAPGKERELVAAIDWSGGSTYYADSVKGRFTISRDNAKNTVYLQMNSLKPEDTAVYYCNAESYQDTLFGADNDYDYWGQGTLVTVSS,low polyreactivity
19,QVQLVESGGRLFQAGGSLRLSCAACGFTIPYYAMRWYRKAPGKERELVAAIDWTGGSTYYADSVKGRFTISRDKAKNTVYLQMNSRKPEETEVYYCAREVDYSISSPTPPVVELDYWGQGTQVTVSS,low polyreactivity
20,QVEHVESGGGLVQAGGSLRLSCAASGSIIVDNAMGWSRQAPGKDRELVAAISVGGGRTYYADSVKGRFTISRDNAKNTVYLQMNSLKPEDTAVYYCNRVPTRGPHGVWFGYCGQGTQVTVSS,high polyreactivity
21,QVQLVESGGGLVQAGGSLRLSCAASGRTFRKYGMGWYRQAPGKERELVAAITRSGGSTYYADSVKGRFTISRDNAKHTVYLQMNSLKPEDTSVSYCARSPVVVGSFLSYDYWGQGTQVTVSS,high polyreactivity
22,KVQLVETGGGLVQAGGSLRLSCAASGSILIYNAMGWYRQAPGKERELVAGISRRGASTYYADSVKGRFTNSRDNAKKTVYLQMKSLKPEDTAVYYCAALGKYIVAWSGDFWGQGTQVTVSS,low polyreactivity

row,Sequence,polyreactivity (PSR sort gate)
1,QVQLVESGGGLVQAGASLRLSCAASGFTLYSYAMGWYRQAPGKERELDASISTGGSTYYADSVKGRFTISRDNAKNTVYLQMNSLKPVDTAVYYSAVDGWYYTSWSFYRRYEYWGQGTQVSVSS,high polyreactivity
2,QVQLVESGGGLVQAGGSLRLSCAASGRTFVYYAMGWYRQAPGKERELVAAIRRDTRTYYADSVKGRFTISRDNAKNTVYLQMNSQTPEDTAVYYCAADDPWHYDFDYWGQGTQVTVSS,low polyreactivity
3,QVQLVESGGGLVQAGGSLRLSCAASGSTFKFNAMGWYRQAPGKERELVAAISRGGRTNYADSVKGRFTISRDNAKNTVYLQMNSLKPEDTAVYYCAKDVAGLFHVGALYYYWGQGTQVTVSS,low polyreactivity
4,QVQLVESGGGLVQAGGSLRLSCAASGFTFRFYAMGWYRQAPGKERELVAAISYNGGSTYYADSVKGRFTISRDNAKNTVYLQMNSLKPEDTAVYYCAAGYYWQYTSSSAQYAYDYWGQGTQVTVSS,low polyreactivity
5,QVQLVESGGGLVQAGGSLRLSCAASGIIFRGNAMGWYRQAPRKERELVAAISSAGSTNYADSVKGRFTISRDNAKNTVYLQMNSLKPEDTAVYYCAKGSSKYHVTLRGRGYYWGQGTQVTVSS,low polyreactivity
6,QVQLVDSGGGLVHAGGSLRLSCAASGRTFFINTMGWYRQPPGKEREFVAAITWSAGRTYYADSVKGRITISRDNAKNTVYLQMISLKPEDTAVYYCAAALDGHTFPFYYWGQGTQVTVSS,low polyreactivity
7,QVQLVESGGGLVQAGGSLRLSCAASGFIFYYYAMGWYRQAPGKEREMFAAITQGGGSTYYADSVKGRFTISRDNAKNTVYFQMNSLKPEDTAVYYCAAVKRVYAHCRAFSSDFYYWGQGTQVNVSS,high polyreactivity
8,QVQLVESGGGLVQAGGSLRLSCAASGRTFRYYAMGWYRQAPGKERELVAAITWSVGSTYYADSVKGRFTISRDNAKNTVYLQMNSRKPEDTAVYYCAADRVRGGYRTYYWVVHFDYWGQGTQVTVSS,high polyreactivity
9,QVQLVESGGGLVQAGGSLRLSCAASGRTFASNDMGWYRQAPGKERELVADINNGARTYYADSVKGRFTISRDNAKNTVYLQMNSLKPEDTAVYYCNARPWYWWEGRYDYWGQGTQVTVSS,high polyreactivity
10,QVQLVESGGCLVQAGGSLRLSWDASGSIFLGYTIGWYRQAPGKERELVAAINSSGGSTYYAYSVKGRFTISRDNAKNTVFLQMNSLKPDDTAVYYCADANSILLFDSWGQGTQVTVSS,low polyreactivity
11,QVQLVESGGGLVQAGGSLRLSCAASGSIFGDYVMGWYRQAPGKERELVAAINRGGSTYYADSVKGRFTISRDNAKNTVYLQMNSLKPEDTALYYCAAGYPSWYYGYPYDSWGQGTQVTVSS,low polyreactivity
12,QVQLVESGGGLVQAGGSLRLSCAASGSTFYPYAMGWYRQATGKERELVAAISSGGSTSYADSVKGRFTISRDNAKNTVYLQMNSLKPEDTAVYFCNASSPGAVPVYDYDYWGQGTQVTVSS,low polyreactivity
13,QVQLVESGGGLVQAGGSLRLSCAASGFTFTGYAMGWYRQAPGKERELVAAITRGGGSTYYADSVKGRFTISRDNAKNTVYLQMNSLKPEDTAVYYCAAQRSRLIRISSPYYGHDYWGQGTQVTVSS,low polyreactivity
14,QDQLVESCGGLVQAGGSLRLICAASGITFRYNAMGWYRQAPGKERELVAAITFSGGSTYYADSVKGRFTISRDNAKNTVYLQMISLKPEDTAVYYCAARKARPPFPHPFDYYWGQGTQVTVSS,low polyreactivity
15,QVQLVESGGGLVQAGGSLRLSCAASGSTSRLYAMGWYSQAPGKERELVAAIRYSSGTTYYADSVTVRFTISRDNAKNTVYLQMNSLKPEDTAVYYCAAVTIRRYGPAEYNYWGQGTQVTVSS,high polyreactivity
16,QVQHVESGGGLVQAGGSLRLSCASSGRIIGKYVMAWYRQAPGKERELVAGISWSAGSTYYADSVKGRFTISRDNAKNTVYLQMNSLKPEDTAVYYCAAGLEGVYDYWGQGTQVTVSS,low polyreactivity
17,QVQHVESGGGLVQAGGSLRLSCAASGPTYKRYAMGWYRQAPGKERELVAAIRQRGGSTYYADSVKGRFTISRDNAKNTVYLQMISLKPEDTAVYYWAKRYVSNSQYEYWGQGTQVTVSS,high polyreactivity
18,QVQLVESGGGLVQAGGSLRLSCAASGITFVRYAMGWYRQAPGKERELVAVISRGGITNYADSVKGRFTISRDNAKNTVYLQMNSLKPEDTAVYYCAVRGRSYVRTYDYWGQGTQVTVSS,high polyreactivity
19,QVQLEESGGGLVQAGGSLRLSCAASGRIFPYYTMGWYRQAPGKERELVAAISWSGGSTYYADSVKGRFTISRDNAKNTVYLQMNSLKPEDTAVYYCNVRKVYRYQYRFEYWGQGTQVTVSS,high polyreactivity
20,QVQLEESGGGLVQAGGSLRLTCAASGRIFTPYAMGWYRQAPGKQTELVADIRDGSTYYADSVKGRFTISRDNAKNTVYLQMNSLKPEDTAVYYSRYYIWVWWSGAYDYWGQGTQVTVSS,low polyreactivity
21,QVQLVESGGGLVQAGGSLRLSCAASGSIFPENVMGWYRQAPGKERELVAAISWSGGSTYYADSVKGRFTISRDNAKNTVYLQMNSLKPEVTAVYYCNRVPSWRIDYDYWGQGTQVTVSS,low polyreactivity
